This passage reports Kd results from publication PMC3991421.

The assay addresses hydroxycoumarin-labeled M2 C terminus (…) (influenza A virus). Description: […]; fluorescence anisotropy, equilibrium; […], in triplicate.

Turning to “purified LC3 (from UniProt Q9GZQ8 1-120) (natural protein)”, the Kd amounted to 9.5 µM.
